T1: mouse SEMA4A expressed on expi293 cells (UniProt ID Q62178) (mouse, UniProt Q62178 33-760)
T1 construct: Transient transfection in expi293 cells
T1 sequence: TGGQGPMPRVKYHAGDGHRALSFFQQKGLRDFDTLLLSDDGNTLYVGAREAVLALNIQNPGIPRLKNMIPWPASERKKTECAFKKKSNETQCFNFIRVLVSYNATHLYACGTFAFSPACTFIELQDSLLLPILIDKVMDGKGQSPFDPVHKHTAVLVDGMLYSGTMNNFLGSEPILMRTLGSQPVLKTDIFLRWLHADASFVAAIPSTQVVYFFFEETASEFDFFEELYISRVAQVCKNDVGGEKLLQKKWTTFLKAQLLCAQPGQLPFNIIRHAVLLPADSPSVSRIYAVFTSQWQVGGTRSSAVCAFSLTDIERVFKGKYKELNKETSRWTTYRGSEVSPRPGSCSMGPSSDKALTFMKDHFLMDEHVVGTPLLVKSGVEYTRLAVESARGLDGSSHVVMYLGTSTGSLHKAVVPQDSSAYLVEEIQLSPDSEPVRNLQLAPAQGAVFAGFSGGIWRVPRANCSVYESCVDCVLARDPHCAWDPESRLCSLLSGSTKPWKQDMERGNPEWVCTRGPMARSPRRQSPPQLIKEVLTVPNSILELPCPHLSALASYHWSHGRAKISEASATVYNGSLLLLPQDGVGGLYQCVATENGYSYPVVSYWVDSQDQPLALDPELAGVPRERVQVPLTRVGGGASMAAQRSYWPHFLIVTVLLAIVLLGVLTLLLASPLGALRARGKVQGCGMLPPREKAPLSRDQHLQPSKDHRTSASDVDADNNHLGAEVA

T2: human SEMA4B expressed on expi293 cells (human, UniProt Q9NPR2 44-837)
T2 construct: whole, on cells
T2 sequence (looked up): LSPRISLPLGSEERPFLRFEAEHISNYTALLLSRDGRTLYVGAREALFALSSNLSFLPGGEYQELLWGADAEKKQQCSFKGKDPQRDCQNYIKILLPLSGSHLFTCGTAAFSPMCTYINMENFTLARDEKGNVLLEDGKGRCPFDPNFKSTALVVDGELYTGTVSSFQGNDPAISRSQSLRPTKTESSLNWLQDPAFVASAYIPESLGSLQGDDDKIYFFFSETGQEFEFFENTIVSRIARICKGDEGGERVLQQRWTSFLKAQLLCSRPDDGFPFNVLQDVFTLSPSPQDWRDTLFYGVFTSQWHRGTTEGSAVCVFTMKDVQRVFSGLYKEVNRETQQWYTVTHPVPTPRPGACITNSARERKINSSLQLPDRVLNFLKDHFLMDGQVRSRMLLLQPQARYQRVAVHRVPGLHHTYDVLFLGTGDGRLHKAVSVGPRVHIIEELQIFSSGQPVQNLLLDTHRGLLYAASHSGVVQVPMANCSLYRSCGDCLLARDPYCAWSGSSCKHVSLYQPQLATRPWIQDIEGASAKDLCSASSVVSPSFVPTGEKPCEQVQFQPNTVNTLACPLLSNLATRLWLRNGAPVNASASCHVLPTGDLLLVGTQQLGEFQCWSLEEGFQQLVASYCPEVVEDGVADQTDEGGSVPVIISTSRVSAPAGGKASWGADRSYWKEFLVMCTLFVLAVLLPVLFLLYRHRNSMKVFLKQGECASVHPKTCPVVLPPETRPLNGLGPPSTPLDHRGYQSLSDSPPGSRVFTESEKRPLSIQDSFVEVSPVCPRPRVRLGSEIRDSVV

T3: cynomolgus SEMA4A expressed on expi293 cells (UniProt ID G7NV79) (cynomolgus, UniProt Q9H3S1 33-761 (human entry))
T3 construct: Transient transfection in expi293 cells; also called cyno SEMA4A
T3 chain: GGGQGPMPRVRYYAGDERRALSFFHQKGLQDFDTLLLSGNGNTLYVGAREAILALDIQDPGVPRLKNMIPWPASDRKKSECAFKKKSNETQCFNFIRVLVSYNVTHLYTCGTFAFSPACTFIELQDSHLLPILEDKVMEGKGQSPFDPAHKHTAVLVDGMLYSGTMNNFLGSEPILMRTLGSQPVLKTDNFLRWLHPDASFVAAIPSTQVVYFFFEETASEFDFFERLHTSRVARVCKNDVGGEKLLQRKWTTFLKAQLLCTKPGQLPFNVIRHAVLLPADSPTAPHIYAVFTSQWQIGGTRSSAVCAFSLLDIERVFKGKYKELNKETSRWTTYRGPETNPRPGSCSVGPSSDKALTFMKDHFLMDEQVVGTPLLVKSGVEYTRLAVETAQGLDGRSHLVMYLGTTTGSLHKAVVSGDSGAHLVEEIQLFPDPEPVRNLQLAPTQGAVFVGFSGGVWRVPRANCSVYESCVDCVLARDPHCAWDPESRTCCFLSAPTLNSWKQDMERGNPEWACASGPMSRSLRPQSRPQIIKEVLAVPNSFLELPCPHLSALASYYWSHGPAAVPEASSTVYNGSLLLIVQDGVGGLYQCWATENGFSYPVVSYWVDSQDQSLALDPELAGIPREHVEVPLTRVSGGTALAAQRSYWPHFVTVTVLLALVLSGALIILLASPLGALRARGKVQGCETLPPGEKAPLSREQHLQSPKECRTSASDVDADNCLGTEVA

T4: human SEMA4A expressed on cells (UniProt ID Q9H3S1, isoform 1) (human, UniProt Q9H3S1 33-761)
T4 construct: Cell-surface SEMA4A: endogenous on MM.1S, NCI-H929 and Karpas-25 cells, or expi293 cells transfected with Origene SC323738; also called human Semaphorin4A; SEMA4A endogenously expressed on MM.1S cells
T4 sequence: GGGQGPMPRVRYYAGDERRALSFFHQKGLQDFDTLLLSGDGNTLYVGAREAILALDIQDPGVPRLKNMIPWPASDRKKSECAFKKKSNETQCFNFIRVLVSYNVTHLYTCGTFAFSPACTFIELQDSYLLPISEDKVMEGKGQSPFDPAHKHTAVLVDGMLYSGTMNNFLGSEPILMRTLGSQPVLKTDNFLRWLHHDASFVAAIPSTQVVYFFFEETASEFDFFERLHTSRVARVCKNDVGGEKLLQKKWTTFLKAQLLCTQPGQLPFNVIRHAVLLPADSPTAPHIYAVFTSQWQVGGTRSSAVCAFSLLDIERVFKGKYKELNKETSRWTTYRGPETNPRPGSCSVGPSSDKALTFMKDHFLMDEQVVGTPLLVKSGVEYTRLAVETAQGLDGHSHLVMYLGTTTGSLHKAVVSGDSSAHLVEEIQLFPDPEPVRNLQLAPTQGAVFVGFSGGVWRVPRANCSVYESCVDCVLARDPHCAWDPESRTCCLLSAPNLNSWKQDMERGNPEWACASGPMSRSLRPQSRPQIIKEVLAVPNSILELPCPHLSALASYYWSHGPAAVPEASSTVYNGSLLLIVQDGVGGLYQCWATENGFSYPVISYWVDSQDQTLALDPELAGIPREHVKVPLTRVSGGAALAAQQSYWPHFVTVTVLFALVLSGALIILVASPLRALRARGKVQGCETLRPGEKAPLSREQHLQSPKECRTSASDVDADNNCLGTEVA


Experiments:
[1] = biological target: T1, mouse SEMA4A expressed on expi293 cells …; assay: Mirrorball direct binding, dilution series on expi293 cells transiently transfected with mouse SEMA4A, anti-human Alexa Fluor 647
Text: (§1) Hits from the primary screening were re-formatted into the human Alya IgG1 vector and re-expressed and purified as described in section 4.1. In addition, a single clone was identified that contained an Asparagine deamidation motif (Asn Gly) within its VHCDR2. This potential sequence liability was de-risked by synthesising de novo two clonal variant VH genes (Asn Ala and Gln Gly) and cloning these sequences into the human Alya IgG1 expression vector. To determine the specificity profile of each purified human Alya IgG1, a dilution series was tested for binding to human SEMA4A, mouse SEMA4A, cyno SEMA4A, human SEMA4B and mock transfected cells (transient transfections set up in expi 293 cells.) The five assays employed methods described in section 2.3, using the appropriate cells and substituting the un-purified scFv periplasmic preparation with the recombinant human Alya IgG1 dilution series. Data was analysed as Count x median mean intensity (x FLU).

[2] = biological target: T2, human SEMA4B expressed on expi293 cells; assay: Mirrorball direct binding, dilution series on expi293 cells transiently transfected with human SEMA4B, anti-human Alexa Fluor 647
Text: as §1

[3] = biological target: T3, cynomolgus SEMA4A expressed on expi293 …; assay: Mirrorball direct binding, dilution series on expi293 cells transiently transfected with cynomolgus SEMA4A, anti-human Alexa Fluor 647
Text: as §1

[4] = biological target: T4, human SEMA4A expressed on cells …; assay: Mirrorball direct binding, dilution series on expi293 cells transiently transfected with human SEMA4A, anti-human Alexa Fluor 647
Text: as §1

Binder | binding result [1] | binding result [2] | binding result [3] | binding result [4]
C0120923 (antibody, V domains shown, 239iCys and S442C (EU numbering) in the constant region, one of the 6 germlined clones of m49; purified, unconjugated; also called C0120923 germlined human Alya IgG1) VH: not shown VL: NFMLTQPHSVSESPGKTVTISCTGSGGNIVDNFVQWHQQRPGSSPTTVIYEDDQRPSGVPDRFSASVDSSSNSGSLTISGLKTEDEADYYCQSYDGANRWVFGGGTKLTVL | binds | no binding (tested: log (M) -8 (1e-8 M)) | binds | binds
C0120924 (antibody, V domains shown, 239iCys and S442C (EU numbering) in the constant region, one of the 6 germlined clones of m49; purified, unconjugated; also called C0120924 germlined human Alya IgG1) VH: QVQLVQSGAEVKKPGASVKVSCKASGYKLNDPGVHGVSWVRQAPGQGLEWMGWISTLNGDTRYAQKFQGRVTMTTDSSTSTIYMELRSLRSDDTAVYYCARDDYTAIFDFWGQGTLVTVSS VL: SSVLTQPPSVSVAPGQTARITCGGSNIGSQSVHWYQQKPGQAPVLVVYDDSDRPSGIPERFSGSKSGNTATLTISRVEAGDEADYYCQVWDSSTDHHVFGTGTKVTVL | binds | no binding (tested: log (M) -8 (1e-8 M)) | binds | binds
C0120920 (antibody, V domains shown, 239iCys and S442C (EU numbering) in the constant region, purified, unconjugated; also called C0120920 human Alya IgG1 (unconjugated)) VH: EVQLVQSGPEVKKPGASVKISCKASGYKLNDPGVHGVSWVRQAPGQGLEWMGWISTLNADTRYAQKFQGRVTMATDSSTSTIYMDLRSLKSDDTALYYCARDDYTAIFDFWGRGTLVTVSS VL: QSVLTQPPSVSVAPGQTASITCGGSNIGSQSVHWYQQKPGQAPVLVVYDDSDRPSGIPERFSGSKSGNTASLILSRVEAGDEADYYCQVWDSSTDHHVFGTGTKVTVL | binds | no binding (tested: log (M) -8 (1e-8 M)) | – | binds
C0120921 (antibody, V domains shown, 239iCys and S442C (EU numbering) in the constant region, purified, unconjugated; also called C0120921 human Alya IgG1 (unconjugated)) VH: EVQLVQSGPEVKKPGASVKISCKASGYKLNDPGVHGVSWVRQAPGQGLEWMGWISTLQGDTRYAQKFQGRVTMATDSSTSTIYMDLRSLKSDDTALYYCARDDYTAIFDFWGRGTLVTVSS VL: QSVLTQPPSVSVAPGQTASITCGGSNIGSQSVHWYQQKPGQAPVLVVYDDSDRPSGIPERFSGSKSGNTASLILSRVEAGDEADYYCQVWDSSTDHHVFGTGTKVTVL | binds | no binding (tested: log (M) -8 (1e-8 M)) | – | binds

From patent US20250152729A1 (CANCER RESEARCH TECHNOLOGY, published 2025)
